Results on 2 proteins are retold here after article PMC9738585, “Unveiling the Metal-Dependent Aggregation Properties of the C-terminal Region of Amyloidogenic Intrinsically Disordered Protein Isoforms DPF3b and DPF3a” (International Journal of Molecular Sciences, 2022).

This series deals with the molecule itself. Briefly: thioflavin T fluorescence; purified C-TER (~10 µM) incubated in TBS (50 mM Tris-HCl pH 8.0, 150 mM NaCl) at ~20 °C for 96 to 144 h; 10 µM ThT, excitation 440 nm, emission 485 nm; self-assembly into amyloid fibrils; also at ~5 µM with 100 µM Cu2+, Mg2+, Ni2+ or Zn2+.

B1: C-terminal region of DPF3b (C-TERb) (domain or fragment, human, UniProt Q92784-1 200-378, looked up)
chain: CDICGKRYKNRPGLSYHYAHTHLASEEGDEAQDQETRSPPNHRNENHRPQKGPDGTVIPNNYCDFCLGGSNMNKKSGRPEELVSCADCGRSGHPTCLQFTLNMTEAVKTYKWQCIECKSCILCGTSENDDQLLFCDDCDRGYHMYCLNPPVAEPPEGSWSCHLCWELLKEKASAFGCQA
notes: Double-PHD fingers 3 isoform DPF3b (378 amino acids), human, Uniprot Q92784-1, residues 200-378 (C2H2, PHD-1 and PHD-2 zinc fingers); also called DPF3b C-terminus; source: E. coli BL21 Rosetta (DE3), purified (GSTrap FF, on-column TEV cleavage); not shown: GST, N-terminal, cleaved
As for B1, the binding result is recorded as “binds”.

B2: C-terminal region of DPF3a (C-TERa) (domain or fragment, human, UniProt Q92784-2 200-357, looked up)
chain: CDICGKRYKNRPGLSYHYAHTHLASEEGDEAQDQETRSPPNHRNENHRPQKGPDGTVIPNNYCDFCLGGSNMNKKSGRPEELVSCADCGRSAHLGGEGRKEKEAAAAARTTEDLFGSTSESDTSTFHGFDEDDLEEPRSCRGRRSGRGSPTADKKGSC
notes: Double-PHD fingers 3 isoform DPF3a (357 amino acids), human, Uniprot Q92784-2, residues 200-357 (C2H2, truncated PHD-1/2 and disordered C-terminal domain); also called DPF3a C-terminus; source: E. coli BL21 Rosetta (DE3), purified (GSTrap FF, on-column TEV cleavage); not shown: GST, N-terminal, cleaved
Consider B2, for which the binding result is “binds”.
